The target in experiment [1] is T1, human PILRA G78 extracellular domain (recombinant hPILRA ECD) (human, UniProt Q9UKJ1 20-197).
T1 construct: also called hPILRA G78
Nature of the experiment: SPR.

Experiment [2] has as its target T2, human PILRA R78 extracellular domain (recombinant) (human, UniProt Q9UKJ1 20-197).
T2 construct: also called hPILRA R78
Nature of the experiment: SPR.
Target sequence in this assay (Q9UKJ1 20-197 limits assumed): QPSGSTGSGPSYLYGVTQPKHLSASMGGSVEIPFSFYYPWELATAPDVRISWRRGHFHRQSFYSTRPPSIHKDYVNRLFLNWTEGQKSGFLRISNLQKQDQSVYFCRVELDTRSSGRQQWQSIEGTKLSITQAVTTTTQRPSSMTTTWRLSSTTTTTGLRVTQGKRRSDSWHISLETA

The target of experiment [3] is T3, human PILRB extracellular domain (recombinant) (human, UniProt Q9UKJ0 20-191).
T3 construct: also called hPILRB
Nature of the experiment: SPR. Background: Surface plasmon resonance follows binding to a sensor surface in real time, without labels.

Experiment [4] addresses T4, cynomolgus monkey PILRA extracellular domain (recombinant) (cynomolgus monkey).
T4 construct: also called cynoPILRA; Cyno PILRA
As to the kind of experiment: SPR.

Experiment [5] has as its target T5, human PILRA G78 on cells (human, UniProt Q9UKJ1 20-303). Nature of the experiment: cell-based or functional assay.
Target sequence in this assay (Q9UKJ1 20-303 R78G limits assumed): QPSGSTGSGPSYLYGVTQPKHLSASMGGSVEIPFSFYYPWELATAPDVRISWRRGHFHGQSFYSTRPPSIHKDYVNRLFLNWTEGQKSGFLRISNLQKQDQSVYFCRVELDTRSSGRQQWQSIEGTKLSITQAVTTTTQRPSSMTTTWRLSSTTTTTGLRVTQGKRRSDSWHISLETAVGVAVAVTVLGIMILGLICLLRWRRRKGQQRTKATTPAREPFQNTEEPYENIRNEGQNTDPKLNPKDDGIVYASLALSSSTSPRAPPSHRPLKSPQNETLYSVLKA
For experiment [6], the target named is T6, human PILRA R78 on cells (human, UniProt Q9UKJ1 20-303). Nature of the experiment: cell-based or functional assay.
Experiment [7] deals with T5, human PILRA G78 on cells. Nature of the experiment: flow cytometry on HEK293 cells expressing hPILRA G78. (A flow cytometer gives signals particle by particle.)
Target sequence in this assay (Q9UKJ1 20-303 R78G limits assumed): as above
Experiment [8] addresses T1, human PILRA G78 extracellular domain …. Nature of the experiment: SPR, Biacore 8K; hPILRA ECD; antibody with wild-type Fc.
Protocol: (§1) Antibodies were captured on Biacore™ Series S CM5 sensor chips immobilized with mouse anti-human Fab (human Fab capture kit from GE Healthcare) followed by injections of serial 3-fold dilutions of recombinant ECD reagents at a flow rate of 30 μL/min. Each sample was analyzed using a 3-minute association followed by a 10-minute dissociation. After each injection, the sensor chip was regenerated using a 5 0 mM glycine pH2.0 regeneration buffer. A 1:1 Languir model of simultaneous fitting of kₒₙ and koff was used for kinetics analysis.
Characterization for binding affinities of the humanized antibodies to hPILRA ECD were measured by SPR using a Biacore 8K instrument (Table 7).
The target of experiment [9] is T5, human PILRA G78 on cells. As to the kind of experiment: flow cytometry on PILRA G78 expressing CHO-K1 cells (FIG. 1H).
Target sequence in this assay (Q9UKJ1 20-303 R78G limits assumed): as above
Protocol: (§2) PILRA G78 or R78 overexpressing HEK293 cells were stained with NucBlue Live cell stain for 30 mins at RT. […] Cell lines were run in duplicate to account for intra-variability, for a total of N=3. The same protocol was used for CHO-K1 cells expressing hPILRA G78.
Experiment [10] concerns the target T5, human PILRA G78 on cells. Nature of the experiment: flow cytometry on PILRA G78 expressing HEK293 cells (FIG. 1D); HEK293 cells expressing PILRA G78.
Protocol: as §2
Experiment [11] deals with T6, human PILRA R78 on cells. Nature of the experiment: flow cytometry on PILRA R78 expressing HEK293 cells (FIG. 1F); HEK293 cells expressing PILRA R78.
Protocol: as §2
For experiment [12], the target named is T1, human PILRA G78 extracellular domain …. Nature of the experiment: SPR. This is another data set of the same source.
Experiment [13] has as its target T2, human PILRA R78 extracellular domain …. Nature of the experiment: SPR. The source holds these as a separate data set.
Target sequence in this assay (Q9UKJ1 20-197 limits assumed): as the sequence (Q9UKJ1 20-197 limits assumed) above
Experiment [14] addresses T3, human PILRB extracellular domain …. Nature of the experiment: SPR. This is another data set of the same source.
For experiment [15], the target named is T4, cynomolgus monkey PILRA extracellular …. Nature of the experiment: SPR. This is another data set of the same source.
Experiment [16] has as its target T5, human PILRA G78 on cells. As to the kind of experiment: cell binding, HEK293 cells expressing hPILRA G78; antibody with modified Fc.
Target sequence in this assay (Q9UKJ1 20-303 R78G limits assumed): as the sequence (Q9UKJ1 20-303 R78G limits assumed) above
The target of experiment [17] is T6, human PILRA R78 on cells. Nature of the experiment: cell binding, HEK293 cells expressing hPILRA R78; antibody with modified Fc.
Experiment [18] concerns the target T3, human PILRB extracellular domain …. As to the kind of experiment: SPR, Biacore 8K, recombinant ECD.
Experiment [19] concerns the target T4, cynomolgus monkey PILRA extracellular …. As to the kind of experiment: SPR, Biacore 8K, recombinant ECD.
Another experiment addresses T7, human PILRB on cells (human, UniProt Q9UKJ0 20-227).
T7 construct: Expressed on CHO-K1 cells, or together with DAP12 on HEK293 cells (hPILRB-DAP12 OE HEK293); also called hPILRB; hPILRB-DAP12
Nature of the experiment: flow cytometry, CHO cells expressing hPILRB, MFI as fold over isotype control.

In experiment [20] the target is T8, cynomolgus monkey PILRA on cells (cynomolgus monkey).
T8 construct: Expressed on CHO-K1 cells; also called cynoPILRA; cyno PILRA
As to the kind of experiment: flow cytometry, CHO cells expressing cynoPILRA, MFI as fold over isotype control.

For experiment [21], the target named is T5, human PILRA G78 on cells. As to the kind of experiment: flow cytometry on HEK293 cells expressing hPILRA G78. The source holds these as a separate data set.
Target sequence in this assay (Q9UKJ1 20-303 R78G limits assumed): as above
Protocol: Parental HEK293 cells were labeled with NucBlue Live ReadyProbes Reagent for 30 mins. […] Antibody binding to the cells was detected by FACS and median fluorescence intensity (MFI) was derived from data analysis performed with the FLOJO software (FIGS. 1A-1C).
Experiment [22] has as its target T5, human PILRA G78 on cells. As to the kind of experiment: flow cytometry on HEK293 PILRA G78 cells with sialidase treatment.
Protocol: (§3) PILRA 78G or PILRA 78R expressing HEK293 cells were treated with SialEXO (Genovis). […] It is a combination of two sialidases acting on α2-3, α2-6 and α2-8 linkages. […] Cells were then washed twice and incubated and stained with NucBlue Live Stain for 30 mins at RT.
The target in experiment [23] is T5, human PILRA G78 on cells. Nature of the experiment: flow cytometry on HEK293 PILRA G78 cells without sialidase treatment.
Protocol: as §3
Experiment [24] addresses T6, human PILRA R78 on cells. Nature of the experiment: flow cytometry on HEK293 PILRA R78 cells with sialidase treatment; with sialidase treatment.
Protocol: as §3
(§4) Following the same protocol, sialidase treatment was also performed on HEK cells expressing PILRA R78.
Experiment [25] has as its target T1, human PILRA G78 extracellular domain …. As to the kind of experiment: SPR, Biacore 8K; antibody captured via anti-human Fab, recombinant ECD injected; 1:1 fit.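 Further: CM5 sensor chip, ECD analyte in threefold dilution series at 30 µL/min, 3 min association and 10 min dissociation, kon and koff fitted simultaneously.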
Protocol: as §1
In experiment [26] the target is T2, human PILRA R78 extracellular domain …. The experiment is described as above.
Protocol: as §1
Experiment [27] concerns the target T3, human PILRB extracellular domain …. The experiment is described as above.
Protocol: as §1
The target of experiment [28] is T6, human PILRA R78 on cells. As to the kind of experiment: flow cytometry on HEK293 PILRA R78 cells without sialidase treatment; without sialidase treatment.
Protocol: as §3, §4

Read-outs that look alike come from different tables or passages of the source.

T1 sequence (Q9UKJ1 20-197 R78G limits assumed): as the sequence (Q9UKJ1 20-197 limits assumed) above, with R59G counted along it
T4 sequence (chain, as listed by the source limits assumed): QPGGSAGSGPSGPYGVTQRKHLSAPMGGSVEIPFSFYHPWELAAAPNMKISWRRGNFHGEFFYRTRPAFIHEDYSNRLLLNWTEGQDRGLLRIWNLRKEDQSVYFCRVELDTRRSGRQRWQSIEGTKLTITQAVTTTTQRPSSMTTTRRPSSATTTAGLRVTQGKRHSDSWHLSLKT
T7 sequence (Q9UKJ0 20-227 limits assumed): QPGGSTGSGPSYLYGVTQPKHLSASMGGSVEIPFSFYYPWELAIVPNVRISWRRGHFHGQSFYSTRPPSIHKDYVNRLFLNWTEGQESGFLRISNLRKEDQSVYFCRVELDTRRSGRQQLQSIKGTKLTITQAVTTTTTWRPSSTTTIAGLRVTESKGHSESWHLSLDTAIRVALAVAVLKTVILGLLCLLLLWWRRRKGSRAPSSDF
T3 sequence (Q9UKJ0 20-191 limits assumed): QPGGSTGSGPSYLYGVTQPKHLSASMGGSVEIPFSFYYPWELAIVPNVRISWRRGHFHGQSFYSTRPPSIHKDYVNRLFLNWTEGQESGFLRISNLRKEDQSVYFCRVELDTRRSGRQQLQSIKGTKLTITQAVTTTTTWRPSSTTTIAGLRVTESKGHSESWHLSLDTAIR
T8 sequence (chain, as listed by the source limits assumed): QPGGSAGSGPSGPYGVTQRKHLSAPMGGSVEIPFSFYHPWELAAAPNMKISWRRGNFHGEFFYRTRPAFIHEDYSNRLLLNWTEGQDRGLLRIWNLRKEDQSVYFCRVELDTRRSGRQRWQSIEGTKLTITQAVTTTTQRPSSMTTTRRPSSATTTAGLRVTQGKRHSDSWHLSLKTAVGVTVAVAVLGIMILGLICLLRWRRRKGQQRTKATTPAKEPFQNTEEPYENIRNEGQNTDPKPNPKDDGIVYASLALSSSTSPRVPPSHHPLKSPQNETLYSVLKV
T6 sequence (Q9UKJ1 20-303 limits assumed): as the sequence (Q9UKJ1 20-303 R78G limits assumed) above, with G59R counted along it

B1: Anti-PILRA antibody clone 12 (antibody, V domains shown)
VH: EVQLVQSGAEVKKPGASVKVSCKASGYTFTEYYMYWVRQAPGQGLELIGRIDPEDGGTDYIEKFKNRVTITADTSTSTAYLELSSLRSEDTAVYYCATTIRGTVFAFWGQGTLVTVSS
VL: DIQMTQSPSSLSASVGDRVTITCRASEDIFNGLAWYQQKPGKSPKLLIYNAKTLHTGVPSRFSGSGSGSDYTLTISSLQPEDFATYFCQQYYDYPLTFGQGTKVEIK
notes: Humanized; also called Ab.12
For the molecule B1, the Kd was determined as 1.2 nM in experiment [1]; 17 nM in experiment [2]; 263 nM in [3]; 1.8 nM in experiment [4]; 1.58 nM in [8]. For the same molecule, the “pSTAT3 S727 induction, EC50 (nM)” value with human PILRA G78 on cells [5] is 16 nM; with human PILRA R78 on cells [6], 7.41 nM. The “pSTAT3 S727 induction, Fold Over Background” value came to 31.6 fold with human PILRA G78 on cells [5] and 21.4 fold with human PILRA R78 on cells [6]. The “pSTAT3 Y705 induction, EC50 (nM)” value came to 11.7 nM in the experiment with human PILRA G78 on cells [5] and 4.53 nM in the experiment with human PILRA R78 on cells [6]. Also, the figures for the “pSTAT3 Y705 induction, Fold Over Background” value with human PILRA G78 on cells [5] and in the experiment with human PILRA R78 on cells [6] were 31.3 fold and 34.6 fold, respectively. The EC50 with human PILRA G78 on cells [7] turned out to be 12 nM; with human PILRA G78 on cells [9], 10.8 nM; with human PILRA G78 on cells [10] it was 12 nM; in the experiment with human PILRA R78 on cells [11] it was 2.7 nM.

B2: Anti-PILRA antibody clone 38 (antibody, V domains shown)
VH: EVQLVQSGAEVKKPGASVKVSCKASGYTFTEYYMYWVRQAPGQGLELIGRIDPEDGGTDYVEKFKNRVTATADTSTSTAYLELSSLRSEDTAVYYCASTIRGTVFVYWGQGTLVTVSS
VL: DIQMTQSPSSLSASVGDRVTITCRPSEDIYNGLAWYQQKPGKAPKLLIYNANSLHTGVPSRFSGSGSGTDYTLTISSLQPEDFATYFCQQYYDYPLTFGQGTKVEIK
notes: Humanized
B2: the Kd was 0.3 to 0.7 nM in [12], 11 nM in [13], 35 to 53 nM in [14] and 0.2 to 0.3 nM in [15]. Also, the EC50 lay in the range of 13 to 14 nM in the experiment with human PILRA G78 on cells [16] and 2 to 4 nM in the experiment with human PILRA R78 on cells [17].

B3: Anti-PILRA antibody clone 39 (antibody, V domains shown)
VH: EVQLVQSGAEVKKPGASVKVSCKASGYTFTEYYMYWVRQAPGQGLELIGRIDPEDGGTDYIEKFKNRVTLTADTSTSTAYLELSSLRSEDTAVYYCATTIRGTVFAFWGQGTLVTVSS
VL: DIQMTQSPSSLSASVGDRVTITCRASEDIFNGLAWYQQKPGKSPKLLIYNAKTLHTGVPSRFSGSGSGSDYTLTISSLQPEDFATYFCQQYYDYPLTFGQGTKVEIK
notes: Humanized
In the case of B3, the Kd in [12] was 0.2 to 0.4 nM; in experiment [13] it was 6.2 to 6.3 nM; in experiment [14] it was 38 to 56 nM; in [15], 0.4 nM. Besides, the EC50 in the experiment with human PILRA G78 on cells [16] is 7 to 8 nM; with human PILRA R78 on cells [17] it was 1 to 2 nM.

B4: Reference Antibody #1 (antibody, human IgG1, kappa, L234A L235A, V domains shown)
VH: QVTLQESGPGILQPSQTLSLTCSFSGFSLSTFGMGVGWIRQPSGKGLEWLAHIWWDDDKYYNPALKSRLTISKDTSKNQVFLKIASVDTADIATYYCARVEDYGNPFDYWGQGTTLTVSS
VL: DIQMNQSPSSLSASLGDTITITCHASQNIHVWLNWYQQKPGNIPKLLIYKASNLHTGVPSRFSGSGSGTGFTVTISSLQPEDIATYYCQQGQSYPLTFGAGTKLELKR
As to B4, the binding result in [18] is listed as “no binding”; in experiment [19], “no binding”; with human PILRB on cells, “no binding (tested: 100 nM)”; in [20], “no binding (tested: 100 nM)”.

B5: Reference Antibody #2 (antibody, human IgG1, kappa, L234A L235A, V domains shown)
VH: QVILKESGPGILQSSQTLSLTCSFSGFSLSTFGMGVGWIRQPSGKGLESLAHIWWDDDKFYNPALKSRLTISKDTSKSQVFLKIANVDTADIATYYCTRIEDYGSYFAYWGQGTTLTVSS
VL: DVQMNQSPSSLSASLGDPITITCHASQNIHVWLNWYQQRPGNIPRLLIYKASNLHTGVPSRFSGSGSGTGFTLTISSLQPEDIATYYCQQGQSYPYTFGGGTKLEIKR
With B5, the binding result in experiment [18] is on record as “no binding”; in experiment [19], “no binding”; with human PILRB on cells, “no binding (tested: 100 nM)”; in experiment [20] it was “no binding (tested: 100 nM)”.

B6: Reference Antibody #4 (antibody, human IgG1, kappa, L234A L235A, V domains shown)
VH: QVTLKESGPGILQPSQTLSLTCSFSGFSLTTFGMGVGWIRQPSGKGLEWLAHIWWDDDKYYNPALKSRLTISKDISKNQVFLKIANVDTADTATYYCARIEDYGNPFDYWGQGTTLTVSS
VL: DIQMNQSPSSLSASLGDTITITCHASQNIHVWLSWYQQKPGNIPKLLIYKASNLHTGVPSRFSGSGSGTGFTLTISSLQPEDIATYYCQQGQSYPLTFGAGTKLELKR
Take B6: the binding result is “no binding” in [18], “no binding” in experiment [19], “no binding (tested: 100 nM)” in the experiment with human PILRB on cells and “no binding (tested: 100 nM)” in experiment [20].

B7: Anti-PILRA antibody clone 6 (antibody, V domains shown)
VH: EVQLQQSGPELQRPGASVKLSCKASGYTFTEYYMYWVKQRPKQGLELIGRIDPEDGGTDYIEKFKNKATLTADTSSNTAYMQLSSLTSEDTATYFCATTIRGTVFAFWGQGTLVTVSS
VL: DIQMTQSPASLSASLGETVTIECRASEDIFNGLAWYQQKPGKSPHLLIYNAKTLHTGVPSRFSGSGSGSQYSLKINSLQSEDVASYFCQQYYDYPLTFGSGTKLEIK
notes: the printed lines of the VL are out of order there
B7: the entries for the “pSTAT3 S727 induction, EC50 (nM)” value with human PILRA G78 on cells [5] and in the experiment with human PILRA R78 on cells [6] were 16 nM and 7.13 nM, respectively. In addition, the “pSTAT3 Y705 induction, EC50 (nM)” value with human PILRA G78 on cells [5] was found to be 12.1 nM; with human PILRA R78 on cells [6], 3.18 nM. Also, the EC50 in the experiment with human PILRA G78 on cells [21] was 9.3 nM; with human PILRA G78 on cells [9] it was 7.6 nM; with human PILRA G78 on cells [22], 4.8 nM; in the experiment with human PILRA G78 on cells [23], 13 nM; with human PILRA R78 on cells [24], 0.3 nM; in the experiment with human PILRA R78 on cells [11], 2 nM. In the experiment with human PILRA R78 on cells [28], this molecule returned an EC50 of 0.7 nM. Besides, the Kd in experiment [25] stood at 0.72 nM; in experiment [26], 9.6 nM; in [27] it was 90 nM.

For orientation: Kd means the concentration at which binding is half-saturated. As a reminder, the EC50 is the concentration at which the effect is half-maximal.
